Source: publication PMC10322149 (2023)

Target: Shank3 (UniProt Q4ACU6 1-1730)
Assay: ITC

Sequence of Shank3 (Q4ACU6 whole entry): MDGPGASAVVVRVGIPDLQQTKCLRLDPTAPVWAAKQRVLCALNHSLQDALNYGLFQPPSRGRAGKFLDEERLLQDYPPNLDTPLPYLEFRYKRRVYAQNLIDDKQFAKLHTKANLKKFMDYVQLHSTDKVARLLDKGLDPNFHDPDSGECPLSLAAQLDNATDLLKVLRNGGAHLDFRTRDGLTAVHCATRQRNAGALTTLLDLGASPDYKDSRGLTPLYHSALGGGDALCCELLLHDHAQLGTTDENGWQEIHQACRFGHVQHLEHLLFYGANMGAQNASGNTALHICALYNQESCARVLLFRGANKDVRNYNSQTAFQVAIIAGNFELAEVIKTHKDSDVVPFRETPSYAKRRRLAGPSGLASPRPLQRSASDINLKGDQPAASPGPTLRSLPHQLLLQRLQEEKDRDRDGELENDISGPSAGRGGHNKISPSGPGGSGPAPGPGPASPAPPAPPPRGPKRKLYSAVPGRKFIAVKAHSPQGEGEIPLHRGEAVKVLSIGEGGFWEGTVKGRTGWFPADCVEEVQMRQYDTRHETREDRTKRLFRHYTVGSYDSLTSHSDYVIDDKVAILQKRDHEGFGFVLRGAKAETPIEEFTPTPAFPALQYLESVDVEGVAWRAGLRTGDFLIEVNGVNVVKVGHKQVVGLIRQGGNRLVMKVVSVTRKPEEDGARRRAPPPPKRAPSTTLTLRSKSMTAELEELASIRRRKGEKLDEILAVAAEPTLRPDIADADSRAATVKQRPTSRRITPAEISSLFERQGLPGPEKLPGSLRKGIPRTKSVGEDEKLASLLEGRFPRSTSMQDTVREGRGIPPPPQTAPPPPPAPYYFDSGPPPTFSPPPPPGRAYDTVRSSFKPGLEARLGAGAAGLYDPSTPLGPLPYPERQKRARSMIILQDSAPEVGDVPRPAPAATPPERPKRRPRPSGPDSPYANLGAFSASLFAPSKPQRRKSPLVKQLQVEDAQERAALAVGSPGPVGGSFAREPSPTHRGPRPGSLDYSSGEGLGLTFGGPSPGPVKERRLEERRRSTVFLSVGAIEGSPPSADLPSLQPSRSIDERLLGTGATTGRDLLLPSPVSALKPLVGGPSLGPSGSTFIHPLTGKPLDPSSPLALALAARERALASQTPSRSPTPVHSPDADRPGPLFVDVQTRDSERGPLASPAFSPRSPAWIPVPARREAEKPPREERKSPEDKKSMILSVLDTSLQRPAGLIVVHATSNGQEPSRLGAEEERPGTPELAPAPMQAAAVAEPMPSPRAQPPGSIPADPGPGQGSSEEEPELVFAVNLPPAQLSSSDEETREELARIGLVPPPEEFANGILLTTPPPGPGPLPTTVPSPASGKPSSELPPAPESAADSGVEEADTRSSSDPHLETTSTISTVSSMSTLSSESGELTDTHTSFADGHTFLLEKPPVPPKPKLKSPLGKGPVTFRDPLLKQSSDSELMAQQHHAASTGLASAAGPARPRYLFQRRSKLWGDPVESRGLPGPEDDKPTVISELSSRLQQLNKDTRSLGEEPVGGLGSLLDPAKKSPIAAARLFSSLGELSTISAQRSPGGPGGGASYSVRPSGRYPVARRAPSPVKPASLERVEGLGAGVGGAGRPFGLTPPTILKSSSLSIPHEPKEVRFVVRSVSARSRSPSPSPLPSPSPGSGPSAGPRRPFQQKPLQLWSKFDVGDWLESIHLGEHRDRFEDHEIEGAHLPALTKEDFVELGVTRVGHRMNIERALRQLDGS

Row | Kd | Binder
1 | 2400 nM | Homer1-R3E (natural protein) MGEQPIFSTRAHVFQIDPNTKKNWVPTSKHAVTVSYFYDSTENVYEIISLDGSKAIINSTITPNMTFTKTSQKFGQWADSEANTVYGLGFSSEHHLSKFAEKFQEFKEAARLAKEKSQEKMELTSTPSQESAGGDLQSPLTPESINGTDDERTPDVTQNSEPRAEPAQNALPFSHSAGDRTQGLSHASSAISKHWEAELATLKGNNAKLTAALLESTANVKQWKQQLAAYQEEAERLHKRVTELECVSSQANAVHSHKTELSQTVQELEETLKVKEEEIERLKQEIDNARELQEQRDSLTQKLQEVEIRNKDLEGQLSELEQRLEKSQSEQDAFRSNLKTLLEILDGKIFELTELRDNLAKLLECS
2 | 1000 nM | Homer1-WT (full-length Homer1) (natural protein) MGEQPIFSTRAHVFQIDPNTKKNWVPTSKHAVTVSYFYDSTRNVYRIISLDGSKAIINSTITPNMTFTKTSQKFGQWADSRANTVYGLGFSSEHHLSKFAEKFQEFKEAARLAKEKSQEKMELTSTPSQESAGGDLQSPLTPESINGTDDERTPDVTQNSEPRAEPAQNALPFSHSAGDRTQGLSHASSAISKHWEAELATLKGNNAKLTAALLESTANVKQWKQQLAAYQEEAERLHKRVTELECVSSQANAVHSHKTELSQTVQELEETLKVKEEEIERLKQEIDNARELQEQRDSLTQKLQEVEIRNKDLEGQLSELEQRLEKSQSEQDAFRSNLKTLLEILDGKIFELTELRDNLAKLLECS
